Test results taken from the supplement of paper PMC10065799, “High-throughput profiling of sequence recognition by tyrosine kinases and SH2 domains using bacterial peptide display” (eLife, 2023).

Tests used:
AncSZ = assay: phosphorylation enrichment, bacterial display (enrichment ratio); higher = better substrate or ligand; peptides without Tyr show the background
EPHB1 = EPHB1 (UniProt P54762); assay: as above
EPHB2 = EPHB2 (UniProt P29323); assay: as above
FGFR1 = FGFR1 (UniProt P11362); assay: as above
FGFR3 = FGFR3 (UniProt P22607); assay: as above
Fer (mouse) = assay: as above
Fes = Fes (UniProt P07332); assay: as above
Fyn = Fyn (UniProt P06241); assay: as above
Hck = Hck (UniProt P08631); assay: as above
Jak2 = Jak2 (UniProt O60674); assay: as above
MERTK = MERTK (UniProt Q12866); assay: as above
c-Abl (mouse) = assay: as above
c-Src = assay: as above
Grb2 SH2 = Grb2 SH2 (UniProt P62993); assay: SH2 binding enrichment of the phosphorylated peptide, bacterial display (enrichment ratio); higher = better substrate or ligand; peptides without Tyr show the background
SHP2-C SH2 = assay: as above
c-Src SH2 = assay: as above
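For SH2 binding enrichment of the phosphorylated peptide, bacterial display in this document: peptide library displayed on the E. coli surface as eCPX fusions, selected cells deep-sequenced, score is each peptide's frequency after selection divided by its frequency in the input.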
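For phosphorylation enrichment, bacterial display in this document: 11-residue human phosphosite peptides and single-mutation variants displayed on the E. coli surface, counted by deep sequencing, each peptide's frequency after selection divided by its frequency in the unselected input library; frequency after pTyr selection over input frequency; kinase dosed for 20-30% of maximal phosphorylation in three min.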

Fes, sequence (P07332 whole entry, looked up): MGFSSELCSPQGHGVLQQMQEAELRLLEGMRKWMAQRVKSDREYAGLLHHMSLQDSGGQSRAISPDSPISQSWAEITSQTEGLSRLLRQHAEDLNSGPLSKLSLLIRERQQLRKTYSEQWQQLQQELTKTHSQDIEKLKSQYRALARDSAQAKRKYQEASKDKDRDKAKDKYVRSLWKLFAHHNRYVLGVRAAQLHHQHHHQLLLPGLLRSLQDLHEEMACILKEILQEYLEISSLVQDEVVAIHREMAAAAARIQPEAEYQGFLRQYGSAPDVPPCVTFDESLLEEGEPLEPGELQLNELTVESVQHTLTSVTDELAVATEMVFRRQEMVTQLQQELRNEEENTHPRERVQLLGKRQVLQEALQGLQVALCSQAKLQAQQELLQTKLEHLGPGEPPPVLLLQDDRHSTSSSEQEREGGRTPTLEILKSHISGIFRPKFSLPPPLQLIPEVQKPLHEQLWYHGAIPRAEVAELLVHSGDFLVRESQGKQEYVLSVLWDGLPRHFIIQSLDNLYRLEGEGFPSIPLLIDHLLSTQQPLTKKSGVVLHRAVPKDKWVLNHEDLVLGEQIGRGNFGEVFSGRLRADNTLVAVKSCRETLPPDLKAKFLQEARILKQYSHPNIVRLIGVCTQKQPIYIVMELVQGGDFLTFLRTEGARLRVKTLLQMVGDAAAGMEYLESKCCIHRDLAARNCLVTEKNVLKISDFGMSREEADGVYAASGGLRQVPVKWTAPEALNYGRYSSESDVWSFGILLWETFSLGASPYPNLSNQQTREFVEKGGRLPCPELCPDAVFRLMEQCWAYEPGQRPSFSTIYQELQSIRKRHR
EPHB2, sequence (P29323 whole entry, looked up): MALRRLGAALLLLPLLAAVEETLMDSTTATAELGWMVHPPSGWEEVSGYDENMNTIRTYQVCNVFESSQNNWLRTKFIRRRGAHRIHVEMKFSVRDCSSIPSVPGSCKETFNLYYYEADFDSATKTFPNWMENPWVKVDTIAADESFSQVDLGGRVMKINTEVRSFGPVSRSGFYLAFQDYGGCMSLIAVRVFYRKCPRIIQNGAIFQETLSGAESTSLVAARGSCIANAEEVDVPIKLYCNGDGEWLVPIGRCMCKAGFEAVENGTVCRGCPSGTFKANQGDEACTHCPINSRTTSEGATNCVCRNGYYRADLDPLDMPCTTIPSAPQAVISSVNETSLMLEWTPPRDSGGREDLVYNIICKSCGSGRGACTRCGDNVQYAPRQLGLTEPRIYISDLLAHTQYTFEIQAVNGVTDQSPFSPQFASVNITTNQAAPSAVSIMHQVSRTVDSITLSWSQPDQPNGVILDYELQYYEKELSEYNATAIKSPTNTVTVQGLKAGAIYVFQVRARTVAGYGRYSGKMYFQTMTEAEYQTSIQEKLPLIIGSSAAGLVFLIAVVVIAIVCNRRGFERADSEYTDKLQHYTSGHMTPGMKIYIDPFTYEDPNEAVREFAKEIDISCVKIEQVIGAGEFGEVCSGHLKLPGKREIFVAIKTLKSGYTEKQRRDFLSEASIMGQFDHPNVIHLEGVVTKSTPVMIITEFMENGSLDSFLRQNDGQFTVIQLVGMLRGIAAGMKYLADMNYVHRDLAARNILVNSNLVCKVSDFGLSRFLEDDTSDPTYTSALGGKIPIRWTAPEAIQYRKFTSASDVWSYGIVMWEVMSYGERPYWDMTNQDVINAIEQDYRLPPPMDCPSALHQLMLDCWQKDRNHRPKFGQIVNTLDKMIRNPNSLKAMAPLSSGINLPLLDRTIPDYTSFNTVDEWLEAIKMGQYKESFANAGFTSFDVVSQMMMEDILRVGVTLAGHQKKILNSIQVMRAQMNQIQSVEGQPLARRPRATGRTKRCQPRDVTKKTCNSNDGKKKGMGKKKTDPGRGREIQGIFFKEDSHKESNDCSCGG
Fyn, sequence (P06241 whole entry, looked up): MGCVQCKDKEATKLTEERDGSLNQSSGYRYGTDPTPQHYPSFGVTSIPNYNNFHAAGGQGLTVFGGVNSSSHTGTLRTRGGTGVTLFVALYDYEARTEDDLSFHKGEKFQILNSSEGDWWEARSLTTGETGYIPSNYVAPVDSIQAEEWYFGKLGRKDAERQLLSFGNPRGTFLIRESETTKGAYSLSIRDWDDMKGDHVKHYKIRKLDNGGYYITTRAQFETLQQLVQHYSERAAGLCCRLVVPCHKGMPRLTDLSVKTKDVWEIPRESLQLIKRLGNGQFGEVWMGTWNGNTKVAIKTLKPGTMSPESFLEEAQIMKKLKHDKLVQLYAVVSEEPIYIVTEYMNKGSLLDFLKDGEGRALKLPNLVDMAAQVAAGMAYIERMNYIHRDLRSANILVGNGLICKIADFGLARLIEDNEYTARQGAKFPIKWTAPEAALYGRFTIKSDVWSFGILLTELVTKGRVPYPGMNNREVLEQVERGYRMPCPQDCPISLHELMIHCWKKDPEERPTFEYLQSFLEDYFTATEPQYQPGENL
MERTK, sequence (Q12866 whole entry, looked up): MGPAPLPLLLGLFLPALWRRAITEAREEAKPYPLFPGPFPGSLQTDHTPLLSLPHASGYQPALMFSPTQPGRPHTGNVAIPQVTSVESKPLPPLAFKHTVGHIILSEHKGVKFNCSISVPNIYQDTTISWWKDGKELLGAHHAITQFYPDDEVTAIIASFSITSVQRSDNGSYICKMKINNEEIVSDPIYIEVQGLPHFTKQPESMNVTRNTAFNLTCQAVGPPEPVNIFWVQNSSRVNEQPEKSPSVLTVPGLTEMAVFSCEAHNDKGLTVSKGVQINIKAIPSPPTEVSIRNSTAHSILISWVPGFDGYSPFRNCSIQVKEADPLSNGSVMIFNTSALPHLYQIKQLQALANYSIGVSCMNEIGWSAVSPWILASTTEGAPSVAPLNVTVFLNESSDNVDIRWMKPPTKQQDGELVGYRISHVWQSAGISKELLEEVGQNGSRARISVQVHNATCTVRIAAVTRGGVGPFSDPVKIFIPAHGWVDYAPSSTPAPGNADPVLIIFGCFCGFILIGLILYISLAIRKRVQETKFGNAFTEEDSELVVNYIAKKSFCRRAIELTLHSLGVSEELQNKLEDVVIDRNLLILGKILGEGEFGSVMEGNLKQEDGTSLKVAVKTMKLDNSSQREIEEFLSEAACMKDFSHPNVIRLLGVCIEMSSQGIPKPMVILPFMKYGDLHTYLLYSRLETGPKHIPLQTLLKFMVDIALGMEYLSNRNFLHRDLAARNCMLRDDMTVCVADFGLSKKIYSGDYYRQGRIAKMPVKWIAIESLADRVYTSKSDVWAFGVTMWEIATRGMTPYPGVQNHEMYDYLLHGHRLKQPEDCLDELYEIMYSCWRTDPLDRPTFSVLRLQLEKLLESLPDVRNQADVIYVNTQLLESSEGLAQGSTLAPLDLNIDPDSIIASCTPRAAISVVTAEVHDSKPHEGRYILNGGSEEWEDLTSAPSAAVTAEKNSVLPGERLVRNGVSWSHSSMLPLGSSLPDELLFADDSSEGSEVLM
EPHB1, sequence (P54762 whole entry, looked up): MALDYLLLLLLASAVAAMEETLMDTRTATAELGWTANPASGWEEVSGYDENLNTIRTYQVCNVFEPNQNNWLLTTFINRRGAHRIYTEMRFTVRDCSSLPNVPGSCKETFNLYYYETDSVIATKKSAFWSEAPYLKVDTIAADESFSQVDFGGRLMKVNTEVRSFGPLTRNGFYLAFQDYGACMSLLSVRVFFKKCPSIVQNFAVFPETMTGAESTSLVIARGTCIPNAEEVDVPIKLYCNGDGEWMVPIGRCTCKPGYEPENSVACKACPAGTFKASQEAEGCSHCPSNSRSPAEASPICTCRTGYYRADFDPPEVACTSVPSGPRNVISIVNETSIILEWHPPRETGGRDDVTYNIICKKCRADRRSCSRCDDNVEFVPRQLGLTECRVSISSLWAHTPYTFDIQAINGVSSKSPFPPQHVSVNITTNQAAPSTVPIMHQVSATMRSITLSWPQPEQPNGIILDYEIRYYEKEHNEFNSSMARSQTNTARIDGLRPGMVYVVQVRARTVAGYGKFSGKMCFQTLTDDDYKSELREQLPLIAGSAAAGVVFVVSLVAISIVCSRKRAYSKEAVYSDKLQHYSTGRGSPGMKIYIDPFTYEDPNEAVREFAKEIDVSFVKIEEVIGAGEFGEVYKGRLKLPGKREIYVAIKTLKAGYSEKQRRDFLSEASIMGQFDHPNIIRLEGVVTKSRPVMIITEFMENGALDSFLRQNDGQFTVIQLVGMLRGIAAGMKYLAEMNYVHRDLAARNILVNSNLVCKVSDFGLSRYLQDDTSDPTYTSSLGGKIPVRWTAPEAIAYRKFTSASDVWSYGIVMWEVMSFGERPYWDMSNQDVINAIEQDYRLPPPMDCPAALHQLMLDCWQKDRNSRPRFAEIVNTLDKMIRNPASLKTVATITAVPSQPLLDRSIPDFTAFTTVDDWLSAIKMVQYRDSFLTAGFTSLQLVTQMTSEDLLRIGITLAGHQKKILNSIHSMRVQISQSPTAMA
Hck, sequence (P08631 whole entry, looked up): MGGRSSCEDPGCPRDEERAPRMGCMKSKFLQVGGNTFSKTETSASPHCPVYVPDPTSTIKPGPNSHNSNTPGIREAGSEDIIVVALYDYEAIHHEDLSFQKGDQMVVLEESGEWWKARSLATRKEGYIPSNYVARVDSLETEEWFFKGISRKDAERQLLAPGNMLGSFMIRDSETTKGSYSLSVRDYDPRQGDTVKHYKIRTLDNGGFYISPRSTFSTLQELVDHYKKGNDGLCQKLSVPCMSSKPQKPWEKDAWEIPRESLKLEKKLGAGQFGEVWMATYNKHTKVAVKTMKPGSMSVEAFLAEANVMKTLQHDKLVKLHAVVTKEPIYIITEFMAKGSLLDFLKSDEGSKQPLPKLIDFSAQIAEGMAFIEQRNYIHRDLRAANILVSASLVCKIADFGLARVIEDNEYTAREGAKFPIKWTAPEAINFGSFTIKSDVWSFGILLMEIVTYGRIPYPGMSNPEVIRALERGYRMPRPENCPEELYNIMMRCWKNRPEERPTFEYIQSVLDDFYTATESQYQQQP

SH2 binding enrichment (Grb2 SH2) | SH2 binding enrichment (SHP2-C SH2) | SH2 binding enrichment (c-Src SH2) | Sequence | phosphorylation enrichment (AncSZ) | phosphorylation enrichment (EPHB1) | phosphorylation enrichment (EPHB2) | phosphorylation enrichment (FGFR1) | phosphorylation enrichment (FGFR3) | phosphorylation enrichment (Fer (mouse)) | phosphorylation enrichment (Fes) | phosphorylation enrichment (Fyn) | phosphorylation enrichment (Hck) | phosphorylation enrichment (Jak2) | phosphorylation enrichment (MERTK) | phosphorylation enrichment (c-Abl (mouse)) | phosphorylation enrichment (c-Src)
1.1 | 0.663 | 0.614 | KVMANYVFKAG [MAML2_Y513_M514V_YF] | 0.617 | 0.396 | 0.515 | 0.459 | 0.486 | 0.355 | 0.656 | 0.382 | 0.435 | 0.564 | 0.401 | 0.485 | 0.433
1.03 | 0.921 | 0.75 | KYVKMCDNHQL [MYO9A_Y203_Y203C] | 0.635 | 0.442 | 0.632 | 0.532 | 0.547 | 0.379 | 0.546 | 0.407 | 0.432 | 0.491 | 0.447 | 0.512 | 0.429
1.05 | 0.583 | 0.5 | LAIEWYVVVCK [RHO_Y136_R135W] | 2.49 | 1.8 | 1.33 | 1.45 | 2.21 | 0.847 | 3.21 | 0.972 | 1.36 | 1.88 | 0.676 | 2.27 | 0.852
0.778 | 0.676 | 0.475 | LARDMCDKEFF [MET_Y1230_Y1230C_YF] | 1.79 | 0.61 | 0.816 | 0.492 | 1.06 | 0.738 | 2.12 | 0.513 | 0.653 | 1.34 | 0.697 | 1.42 | 0.715
2.36 | 0.792 | 1.01 | LDPMVYMNDKS [PTK2B_Y834] | 1.09 | 0.727 | 0.595 | 0.727 | 0.586 | 0.678 | 1.28 | 0.55 | 0.386 | 1.25 | 0.648 | 0.843 | 0.669
0.777 | 0.793 | 0.486 | LEAVSYSSRFA [RNLS_Y190_YF] | 0.718 | 0.369 | 0.359 | 0.432 | 0.496 | 0.408 | 0.773 | 0.474 | 0.463 | 0.564 | 0.399 | 0.596 | 0.435
0.613 | 0.48 | 0.322 | LECEWYKNGVK [TTN_Y2112_P2107L] | 2.15 | 1.36 | 0.923 | 0.744 | 1.01 | 0.771 | 2.16 | 0.619 | 0.931 | 1.39 | 0.921 | 1.16 | 0.576
0.861 | 0.855 | 0.793 | LFLACYFIGGG [UBD_Y161_C162F] | 1.16 | 0.773 | 0.612 | 0.453 | 1.05 | 0.533 | 1.77 | 0.502 | 0.55 | 1.35 | 0.45 | 1.03 | 0.647

The next lines start with the sequence.

Sequence | SH2 binding enrichment (Grb2 SH2) | SH2 binding enrichment (SHP2-C SH2) | SH2 binding enrichment (c-Src SH2) | phosphorylation enrichment (AncSZ) | phosphorylation enrichment (EPHB1) | phosphorylation enrichment (EPHB2) | phosphorylation enrichment (FGFR1) | phosphorylation enrichment (FGFR3) | phosphorylation enrichment (Fer (mouse)) | phosphorylation enrichment (Fes) | phosphorylation enrichment (Fyn) | phosphorylation enrichment (Hck) | phosphorylation enrichment (Jak2) | phosphorylation enrichment (MERTK) | phosphorylation enrichment (c-Abl (mouse)) | phosphorylation enrichment (c-Src)
KWRGQYDVAIE [BTK_Y425_K430E] | 1.01 | 0.823 | 3.07 | 0.631 | 0.441 | 0.531 | 0.448 | 0.481 | 0.505 | 0.774 | 0.39 | 0.509 | 0.708 | 0.424 | 0.537 | 0.437
KYWREYILSLE [GPC3_Y299] | 1.48 | 1.71 | 1.37 | 1.03 | 0.541 | 0.569 | 0.499 | 0.752 | 0.366 | 1.05 | 0.427 | 0.461 | 0.974 | 0.39 | 0.677 | 0.856
LAETSYVKVLE [MAGEA1_Y276] | 0.94 | 7 | 1.69 | 0.817 | 0.499 | 0.471 | 0.53 | 0.532 | 0.472 | 1.03 | 0.479 | 0.473 | 0.888 | 0.452 | 0.616 | 0.512
LAVVDYIRRQK [ATM_Y1915_M1916I] | 0.441 | 0.461 | 0.338 | 1.06 | 0.918 | 1.42 | 0.791 | 0.92 | 0.839 | 1.24 | 0.649 | 0.749 | 0.855 | 0.863 | 1.37 | 1.21
LDAFIYDAALL [GRIN2A_Y730_V734L] | 0.735 | 0.546 | 0.581 | 1.44 | 2.23 | 2.32 | 0.55 | 0.902 | 14.9 | 1.86 | 8.97 | 7.57 | 1.33 | 2.28 | 4.39 | 7.16
LEIETYRRLLD [KRT12_Y429] | 0.762 | 0.602 | 0.473 | 0.854 | 0.616 | 0.549 | 0.45 | 0.627 | 0.471 | 1.03 | 0.468 | 0.497 | 1.01 | 0.367 | 0.656 | 0.369
LGLDEYLDKLK [FMNL2_Y352] | 0.78 | 0.662 | 0.588 | 1.47 | 0.716 | 0.816 | 0.536 | 0.971 | 0.933 | 1.27 | 0.394 | 0.587 | 1.71 | 0.569 | 0.982 | 0.375
